Data as given in article doi:10.1101/2023.08.11.549911.
Values belong to the substance of their own block, whether it stands above or below them.

How the values were obtained:
[1] = target: LRRK2 G2019S, full-length, N-terminal Strep-FLAG (SF) tagged (human) (UniProt Q5S007); experiment: native gel or EMSA; settings: remark: other sources report otherwise
[2] = target: Leucine-rich repeat kinase 2 (LRRK2), full-length wild type, N-terminal Strep-FLAG (SF) tagged (human) (UniProt Q5S007); experiment: mass photometry; settings: remark: other sources report otherwise
[3] = target: LRRK2 R1441G, full-length, N-terminal Strep-FLAG (SF) tagged (human) (UniProt Q5S007); experiment: native gel or EMSA

stoichiometry N [1]: 2
Substance: LRRK2 G2019S, full-length, N-terminal Strep-FLAG (SF) tagged, Q5S007 1-2527

Kd [2]: 200 nM
Substance: Leucine-rich repeat kinase 2 (LRRK2), full-length wild type, N-terminal Strep-FLAG (SF) tagged, Q5S007 1-2527

stoichiometry N [3]: 2
Substance: LRRK2 R1441G, full-length, N-terminal Strep-FLAG (SF) tagged, Q5S007 1-2527
